The target of test [1] is T1, rat GP130 extracellular domain expressed with a C-terminal myc-myc-hexahistidine tag (rGP130-mmH) (rat, UniProt P40190 23-618).
T1 construct: Monomeric; the entry includes the myc-myc-His tag
As to the kind of experiment: SPR Biacore, mAb captured via anti-hFc, 25 C. The procedure:
(§1) Equilibrium dissociation constant (KD) for different GP130 reagents binding to purified anti-GP130 monoclonal antibodies were determined using a real-time surface plasmon resonance based Biacore 4000 biosensor. All binding studies were performed in 10 mM HEPES, 150 mM NaCl, 3 mM EDTA, and 0.05% v/v Surfactant Tween-20, pH 7.4 (HBS-ET) running buffer at 25° C. and 37° C. The Biacore sensor surface was first derivatized by amine coupling with a monoclonal mouse anti-human Fc antibody (GE, #BR-1008-39) to capture anti-GP130 monoclonal antibodies. […] Reagents tagged with “mmH” are monomeric, whereas reagents tagged with “mFc” are dimeric. Thus, for example, “hGP130-mmH” is also referred to as “monomeric human GP130,” and “hGP130-mFc” is also referred to as “dimeric human GP130.”
(§2) The association rate (k a) and dissociation rate (kd) were determined by fitting the real-time binding sensorgrams to a 1:1 binding model with mass transport limitation using Scrubber 2.0c curve-fitting software. Binding dissociation equilibrium constant (KD) and dissociative half-life (t ½) were calculated from the kinetic rates as: […]
Background: SPR reads the build-up and loss of mass on a sensor chip optically.

The target of test [2] is T2, mouse GP130 extracellular domain expressed with a C-terminal myc-myc-hexahistidine tag (mGP130-mmH) (mouse, UniProt Q00560 23-617).
T2 construct: Monomeric; the entry includes the myc-myc-His tag
As to the kind of experiment: SPR Biacore, mAb captured via anti-hFc, 25 C. The procedure:
as §1, §2

Test [3] deals with T1, rat GP130 extracellular domain …. As to the kind of experiment: SPR Biacore, mAb captured via anti-hFc, 37 C. Here is the method: as §1, §2
In test [4] the target is T2, mouse GP130 extracellular domain …. As to the kind of experiment: SPR Biacore, mAb captured via anti-hFc, 37 C. Here is the method:
as §1, §2

For test [5], the target named is T3, human GP130 extracellular domain expressed with a C-terminal mouse IgG2a Fc tag (hGP130-mFc) (human).
T3 construct: also called dimeric human GP130
T3 chain: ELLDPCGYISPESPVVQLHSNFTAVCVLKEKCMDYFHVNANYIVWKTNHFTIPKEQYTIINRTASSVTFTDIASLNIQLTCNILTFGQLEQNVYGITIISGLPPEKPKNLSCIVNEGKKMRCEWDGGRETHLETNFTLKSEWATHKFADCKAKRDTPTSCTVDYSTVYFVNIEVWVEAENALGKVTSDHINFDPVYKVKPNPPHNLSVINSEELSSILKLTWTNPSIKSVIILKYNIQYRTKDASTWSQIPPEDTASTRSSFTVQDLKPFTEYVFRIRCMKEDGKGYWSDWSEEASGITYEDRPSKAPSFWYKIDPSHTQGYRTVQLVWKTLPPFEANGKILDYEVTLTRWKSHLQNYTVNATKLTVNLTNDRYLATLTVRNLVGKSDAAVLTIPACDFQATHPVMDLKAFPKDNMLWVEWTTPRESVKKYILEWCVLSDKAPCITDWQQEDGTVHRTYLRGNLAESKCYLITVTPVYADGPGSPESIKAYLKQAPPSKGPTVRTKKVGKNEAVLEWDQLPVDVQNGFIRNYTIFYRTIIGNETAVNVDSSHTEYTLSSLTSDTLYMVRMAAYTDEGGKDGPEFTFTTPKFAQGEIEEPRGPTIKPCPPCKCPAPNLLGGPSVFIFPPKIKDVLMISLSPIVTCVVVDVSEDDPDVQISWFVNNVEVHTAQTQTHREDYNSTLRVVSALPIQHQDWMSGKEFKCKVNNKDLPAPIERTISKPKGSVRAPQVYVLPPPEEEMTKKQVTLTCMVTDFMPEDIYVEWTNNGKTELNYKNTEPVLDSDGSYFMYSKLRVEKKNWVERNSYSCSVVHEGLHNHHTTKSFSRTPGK
As to the kind of experiment: SPR Biacore, mAb captured via anti-hFc, 25 C. The procedure: as §1, §2

Test [6] concerns the target T3, human GP130 extracellular domain …. Description: SPR Biacore, mAb captured via anti-hFc, 37 C. The procedure:
as §1, §2

B1: MAb16680 (antibody, V domains shown)
VH: QVQLQQSGPGQMKSSQTLTLTCAISGDSVSSNSAIWYWIRQSPSRGLEWLGRTKFRSKWYNDFALSMKSRITINPDTSKNQFSLHLNSVTPEDTAVYYCARYKWELYFDYWGQGTLVTVSS
VL: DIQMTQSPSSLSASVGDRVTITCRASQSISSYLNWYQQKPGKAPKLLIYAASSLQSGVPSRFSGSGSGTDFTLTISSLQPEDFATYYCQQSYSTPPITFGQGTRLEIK
notes: captured through anti-human Fc
Regarding B1, the “100 nM Ag Bound (RU)” value came out at 2 RU in test [1], 0 RU in test [2], 1 RU in test [3] and 0 RU in test [4]. Also, the binding result in test [1] and in test [4] was “no binding (tested: 100 nM)” each time.

B2: MAb16656 (antibody, V domains shown)
VH: EVQLVESGGGLVQPGRSLRLSCAASGFTLDDFAMHWVRQAPGKGLEWVSGISWNSGNIGYADSVKGRFTISRDNARNSLYLQMNSLRAEDTALYYCTSGYYLYYAMDVWGQGTTVTVSS
VL: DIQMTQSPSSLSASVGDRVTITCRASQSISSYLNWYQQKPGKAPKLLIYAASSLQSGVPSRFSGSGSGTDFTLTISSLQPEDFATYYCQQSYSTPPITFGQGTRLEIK
notes: as for B1
By Kd is commonly meant a measure of binding affinity in units of concentration. Higher therefore signals a looser complex. Broadly, the koff is a measure of how fast the partners let go of each other. Low readings indicate a long-lived complex, high ones a short-lived complex. Usually kon stands for the second-order rate constant of association. The low end stands for slower complex formation, the high end for faster complex formation. As a reminder, the t½ is the time needed for the level to fall by half in the phase considered. Consider B2, for which, in test [5], the “100 nM Ag Bound (RU)” value worked out at 98 RU, the Kd came out at 1.68 nM, the koff came to 0.000132 s⁻¹ and the kon was 78100 M⁻¹ s⁻¹. Moreover, the t½ in test [5] worked out at 88 min. Further, the “100 nM Ag Bound (RU)” value in test [1] is -1 RU. Moreover, in test [2], the “100 nM Ag Bound (RU)” value was found to be 0 RU. In test [6], the “100 nM Ag Bound (RU)” value was found to be 123 RU, the Kd came out at 1.7 nM, the koff turned out to be 0.000297 s⁻¹ and the kon is 175000 M⁻¹ s⁻¹. In test [6], the t½ was 39 min. The “100 nM Ag Bound (RU)” value in test [3] was determined as 0 RU. Besides, in test [4], the “100 nM Ag Bound (RU)” value was 0 RU and the binding result is given as “no binding (tested: 100 nM)”.

B3: MAb16618 (antibody, V domains shown)
VH: QVQLQESGPGLVKPSETLSLTCTVSGGSISNYYWTWIRQPPGKGLEWIGHISNSGTTNYNPSLKSRVTISVDTSKNQFSLKLTSVTAADTAVYYCARLPLGIAAVDTDYYYYFGMDVWGQGTTVTVSS
VL: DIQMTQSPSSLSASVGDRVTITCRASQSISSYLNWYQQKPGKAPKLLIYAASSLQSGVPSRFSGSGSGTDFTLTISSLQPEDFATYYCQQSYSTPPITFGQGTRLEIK
notes: as for B1
With B3, the “100 nM Ag Bound (RU)” value in test [5] was 202 RU; in test [1], 6 RU; in test [2], 1 RU; in test [6], 236 RU; in test [3] it was 2 RU; in test [4], 0 RU. Besides, the Kd in test [5] came to 0.236 nM; in test [6] it was 0.674 nM. Also, the figures for the koff in test [5] and in test [6] were 0.000279 s⁻¹ and 0.000934 s⁻¹, respectively. The results for the kon in test [5] and in test [6] were 1.19e+06 M⁻¹ s⁻¹ and 1.39e+06 M⁻¹ s⁻¹, respectively. The t½ turned out to be 41 min in test [5] and 12 min in test [6]. Moreover, the binding result in test [1] and in test [2] was “no binding (tested: 100 nM)” in each case.

B4: MAb16622 (antibody, V domains shown)
VH: EVQLVESGGGVVRPGGSLRLSCTASGFTFDDYGMSWVRQAPGKGLEWVSGINWNGGRTEYADAVKGRFIISRDNAKNSLYLQMNSLRAEDTALYFCARTELRWDYWGQGTLVTVSS
VL: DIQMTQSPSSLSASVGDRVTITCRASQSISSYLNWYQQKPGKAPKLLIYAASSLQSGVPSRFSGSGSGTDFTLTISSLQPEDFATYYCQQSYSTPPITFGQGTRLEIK
notes: as for B1
With B4, the “100 nM Ag Bound (RU)” value was found to be 164 RU in test [5]; 0 RU in test [1]; 1 RU in test [2]; 201 RU in test [6]; 1 RU in test [3]; 1 RU in test [4]. The Kd in test [5] amounted to 0.615 nM; in test [6], 1.29 nM. The koff in test [5] turned out to be 0.000306 s⁻¹; in test [6] it was 0.000825 s⁻¹. Moreover, the values for the kon in test [5] and in test [6] were 497000 M⁻¹ s⁻¹ and 639000 M⁻¹ s⁻¹, respectively. The t½ was 38 min in test [5] and 14 min in test [6]. Moreover, the binding result in test [1] and in test [2] was “no binding (tested: 100 nM)” each time.

B5: MAb16614 (antibody, V domains shown)
VH: QVQLVESGGGVVQPGGSLRLSCAASGFTFSTYDIHWVRQAPGKGLEWVAVISFDGSNRNYGDSVKGRFTISRDNSDNTLFLEMNNLRFEDTAVYYCAKEGYGVDFQHWGQGTLVTVSS
VL: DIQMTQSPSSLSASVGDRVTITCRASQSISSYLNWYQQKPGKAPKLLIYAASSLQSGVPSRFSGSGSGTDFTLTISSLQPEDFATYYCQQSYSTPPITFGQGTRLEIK
notes: as for B1
As to B5, in test [5], the “100 nM Ag Bound (RU)” value was 83 RU, binding was characterised by a dissociation constant (Kd) of 4.47 nM, the koff turned out to be 0.000383 s⁻¹ and the kon was 85700 M⁻¹ s⁻¹. Moreover, the t½ in test [5] was found to be 30 min. Also, in test [1], the “100 nM Ag Bound (RU)” value was 0 RU and the binding result is reported as “no binding (tested: 100 nM)”. Also, in test [2], the “100 nM Ag Bound (RU)” value amounted to 1 RU and the binding result is recorded as “no binding (tested: 100 nM)”. In test [6], the “100 nM Ag Bound (RU)” value came to 85 RU, the Kd turned out to be 9.56 nM, the koff was 0.00172 s⁻¹ and the on-rate constant (kon) worked out at 180000 M⁻¹ s⁻¹. For the same molecule, the t½ in test [6] was 7 min. In addition, the “100 nM Ag Bound (RU)” value in test [3] came to 0 RU. Besides, the “100 nM Ag Bound (RU)” value in test [4] was found to be 0 RU.

B6: MAb16623 (antibody, V domains shown)
VH: EVQLVESGGGLVQPGGSLRLSCAASGLTFSSYEMNWVRQAPGKGLEWVSHISSAGSTKYYADSVKGRFTISRDNAKNSLFLQMNSLRAEDTAIYYCAGYNYAYYYFGVDVWGQGTTVTVSS
VL: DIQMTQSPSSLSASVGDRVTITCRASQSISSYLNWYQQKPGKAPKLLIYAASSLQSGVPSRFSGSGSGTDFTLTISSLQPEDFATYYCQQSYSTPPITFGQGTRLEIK
notes: as for B1
In the case of B6, in test [5], the “100 nM Ag Bound (RU)” value is 184 RU, the dissociation constant (Kd) was found to be 0.468 nM, the koff is 0.000208 s⁻¹ and the association rate constant (kon) was 444000 M⁻¹ s⁻¹. In test [5], this molecule registered a t½ of 56 min. In test [1], the “100 nM Ag Bound (RU)” value turned out to be 0 RU and the binding result is given as “no binding (tested: 100 nM)”. In test [2], the “100 nM Ag Bound (RU)” value was determined as 0 RU and the binding result is given as “no binding (tested: 100 nM)”. Besides, in test [6], the “100 nM Ag Bound (RU)” value stood at 224 RU, the Kd was found to be 0.56 nM, the koff was found to be 0.000325 s⁻¹ and the kon worked out at 580000 M⁻¹ s⁻¹. Besides, in test [6], the t½ amounted to 36 min. Further, in test [3], the “100 nM Ag Bound (RU)” value worked out at 0 RU. Besides, the “100 nM Ag Bound (RU)” value in test [4] was found to be 0 RU.

B7: MAb16636 (antibody, V domains shown)
VH: QLQLQESGPGLVKPSETLSLICTVSGGSISSNNYYWGWIRQPPGKGLEWIGNLYGSGSTYYNPSLKSRVTISVDTSKNQFSLKLSFVTAADTAVYHCARWDTNGGAFDIWGQGTMVTVSS
VL: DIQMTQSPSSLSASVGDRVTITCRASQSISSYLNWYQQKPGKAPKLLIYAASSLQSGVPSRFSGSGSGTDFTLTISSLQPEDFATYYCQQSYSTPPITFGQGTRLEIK
notes: as for B1
Regarding B7, in test [5], the “100 nM Ag Bound (RU)” value was 91 RU, binding was put at a Kd of 1.92 nM, the koff amounted to 0.000113 s⁻¹ and the kon came to 58800 M⁻¹ s⁻¹. The molecule further displayed a t½ in test [5] of 102 min. Besides, in test [1], the “100 nM Ag Bound (RU)” value was found to be 1 RU and the binding result was “no binding (tested: 100 nM)”. In test [2], the “100 nM Ag Bound (RU)” value was 0 RU and the binding result is on record as “no binding (tested: 100 nM)”. Moreover, in test [6], the “100 nM Ag Bound (RU)” value worked out at 136 RU, binding was characterised by a dissociation constant (Kd) of 1.2 nM, the koff was 0.000167 s⁻¹ and the kon amounted to 139000 M⁻¹ s⁻¹. The molecule also registered a t½ in test [6] of 69 min. Also, in test [3], the “100 nM Ag Bound (RU)” value is 0 RU. In addition, the “100 nM Ag Bound (RU)” value in test [4] turned out to be 0 RU.

B8: MAb16637 (antibody, V domains shown)
VH: QVQLVQSGAEVKKPGASVKVSCKASGYTFTSLGISWVRQAPGQGLEWMGWISAYSGNRDYAQKFQGRVTMTTDTSTSTAYMELRSLRSDDTAVYYCARSLRFDYWGQGTLVTVSS
VL: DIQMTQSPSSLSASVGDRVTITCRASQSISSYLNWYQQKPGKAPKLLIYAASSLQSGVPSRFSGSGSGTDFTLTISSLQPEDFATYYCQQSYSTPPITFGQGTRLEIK
notes: as for B1
B8: in test [5], the “100 nM Ag Bound (RU)” value was determined as 189 RU, binding was characterised by a dissociation constant (Kd) of 0.647 nM, the koff is 0.00015 s⁻¹ and the kon is 232000 M⁻¹ s⁻¹. In test [5], the t½ is 77 min. Besides, in test [1], the “100 nM Ag Bound (RU)” value was 0 RU and the binding result was “no binding (tested: 100 nM)”. In test [2], the “100 nM Ag Bound (RU)” value was 1 RU. Further, in test [6], the “100 nM Ag Bound (RU)” value stood at 246 RU, the Kd was 0.65 nM, the koff was 0.000323 s⁻¹ and the kon came out at 496000 M⁻¹ s⁻¹. For the same molecule, in test [6], the t½ was 36 min. Also, the “100 nM Ag Bound (RU)” value in test [3] stood at 0 RU. Also, in test [4], the “100 nM Ag Bound (RU)” value is -1 RU.

The record behind these values is US20240158497A1 (published 2024).
